Measured values taken from publication PMC10444775 (Scientific Reports, 2023).

Legend:
Settings in all cases: both partners purified
[1] = target: SARS-CoV-2 RBD domain (used for HDX-MS of 7A9) (SARS-CoV-2, reference strain …); assay: HDX-MS
[2] = target: CoV-2-S-RBD construct used for x-ray crystallography (SARS-CoV-2, UniProt P0DTC2); assay: crystal structure
[3] = target: CoV-2-S-RBD-SD1 spike construct (SARS-CoV-2, UniProt P0DTC2); assay: ELISA

Measured: binding result

B1: 7A9 VHH (VHH)
VHH: QVQLVESGGGLVQAGGSLRLSCSASGGTASRSAMGWFRQAPGKEREFVAGISRRNSGSTYVADSYEDSVKGRFTISRDNAKNTIYLQMNSLKPEDTAVYYCAAEPTLGWYVPRRSVEYEYWGQGTQVTVSS
binds: all assays above
